This is an account of results in patent US20250313636A1 (PARAGON THERAPEUTICS, published 2025).

The target in assay [1] is T1, recombinant human α4β7 integrin (human, UniProt P13612 34-977; P26010 20-723, limits assumed). Description: SPR, antibody captured on anti-human Fc CM5 chip, recombinant human α4β7 integrin as analyte, 25 °C, 1:1 model; apparent KD. How it is done:
(§1) Following a stabilization period in running buffer, antibodies previously diluted to 1-1.5 μg/mL were captured on the chip for 30 seconds at a flow rate of 10 μL/min. Subsequently, recombinant human α4β7 integrin was prepared at concentrations of 1.563 nM, 3.125 nM, 6.25 nM, 12.5 nM, 25 nM, 50 nM and 100 nM and injected at a flow rate of 30 μL/min for 180 seconds followed by a dissociation phase with just running buffer at a flow rate of 30 μL/min for 1200 seconds. Samples were injected in a multi-cycle manner over freshly captured mAb, by regenerating the capture surfaces with injection of 10 mM Glycine, pH 1.5. The data was processed and analyzed with SPR analysis software, where sensorgrams were fit to a 1:1 binding model to determine the apparent association (ka) and dissociation rate constants (kd). Their ratio provided the apparent equilibrium dissociation constant or affinity constant (KD=kd/ka).

Assay [2] deals with T2, α4β7 integrin expressed on cells (UniProt P13612 34-1032; P26010 20-798, limits assumed). Description: cell-based or functional assay.
T2 sequence (P13612 34-1032 limits assumed, chain 1 of 2): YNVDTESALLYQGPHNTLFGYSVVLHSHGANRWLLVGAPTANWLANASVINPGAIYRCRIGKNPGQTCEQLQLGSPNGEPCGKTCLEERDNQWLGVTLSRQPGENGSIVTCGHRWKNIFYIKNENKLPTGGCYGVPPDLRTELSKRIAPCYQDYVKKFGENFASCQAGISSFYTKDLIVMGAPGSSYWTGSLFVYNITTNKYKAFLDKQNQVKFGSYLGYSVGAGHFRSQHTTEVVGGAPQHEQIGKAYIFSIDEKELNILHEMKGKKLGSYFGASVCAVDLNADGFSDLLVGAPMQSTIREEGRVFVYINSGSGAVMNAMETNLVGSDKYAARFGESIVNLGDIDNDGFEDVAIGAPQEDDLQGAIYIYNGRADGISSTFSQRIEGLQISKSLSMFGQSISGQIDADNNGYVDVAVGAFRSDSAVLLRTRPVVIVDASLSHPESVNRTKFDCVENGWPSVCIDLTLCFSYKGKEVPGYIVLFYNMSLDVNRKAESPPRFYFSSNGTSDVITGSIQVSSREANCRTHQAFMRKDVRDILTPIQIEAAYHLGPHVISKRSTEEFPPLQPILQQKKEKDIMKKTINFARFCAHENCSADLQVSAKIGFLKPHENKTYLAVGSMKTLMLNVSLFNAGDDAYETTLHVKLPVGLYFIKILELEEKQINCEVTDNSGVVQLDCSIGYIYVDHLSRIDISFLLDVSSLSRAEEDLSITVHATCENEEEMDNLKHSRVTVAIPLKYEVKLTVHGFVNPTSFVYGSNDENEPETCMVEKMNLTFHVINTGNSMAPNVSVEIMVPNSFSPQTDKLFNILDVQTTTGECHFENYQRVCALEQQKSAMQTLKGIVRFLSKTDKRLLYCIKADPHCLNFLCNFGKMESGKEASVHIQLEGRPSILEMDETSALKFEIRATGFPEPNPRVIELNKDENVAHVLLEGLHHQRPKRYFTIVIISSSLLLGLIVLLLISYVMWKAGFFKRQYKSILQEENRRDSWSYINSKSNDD
T2 sequence (P26010 20-798 limits assumed, chain 2 of 2): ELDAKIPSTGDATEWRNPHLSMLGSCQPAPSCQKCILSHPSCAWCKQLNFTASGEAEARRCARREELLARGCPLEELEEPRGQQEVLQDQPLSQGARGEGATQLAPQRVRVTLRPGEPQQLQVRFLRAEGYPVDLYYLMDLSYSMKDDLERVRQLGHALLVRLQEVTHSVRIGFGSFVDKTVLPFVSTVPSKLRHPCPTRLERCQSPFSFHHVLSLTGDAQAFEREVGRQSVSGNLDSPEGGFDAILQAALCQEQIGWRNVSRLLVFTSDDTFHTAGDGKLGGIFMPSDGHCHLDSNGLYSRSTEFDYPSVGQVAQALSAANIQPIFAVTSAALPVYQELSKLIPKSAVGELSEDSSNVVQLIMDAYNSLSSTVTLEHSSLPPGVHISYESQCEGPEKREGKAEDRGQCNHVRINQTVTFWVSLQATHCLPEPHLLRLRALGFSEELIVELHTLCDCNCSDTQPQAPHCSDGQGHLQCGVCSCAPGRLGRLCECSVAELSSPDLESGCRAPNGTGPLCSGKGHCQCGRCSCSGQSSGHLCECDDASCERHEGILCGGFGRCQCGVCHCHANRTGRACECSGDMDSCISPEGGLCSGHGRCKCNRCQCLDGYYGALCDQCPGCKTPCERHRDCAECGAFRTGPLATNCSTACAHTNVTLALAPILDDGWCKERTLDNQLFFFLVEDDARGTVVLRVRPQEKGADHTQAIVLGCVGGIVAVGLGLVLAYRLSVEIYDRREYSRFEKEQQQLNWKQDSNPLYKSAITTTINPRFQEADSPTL
Assay [3] addresses T2, α4β7 integrin expressed on cells. Description: flow cytometry on RPMI-8866 cells (α4β7 only). How it is done: (§2) Antibody binding to α4β7 integrin or α4β1 integrin expressed on cells was determined using FACS and two cell lines. […] The second cell line was Ramos and is known to only express α4β1. Briefly, cells were cultured and harvested according to standard vendor instructions. Cells were stained with purified antibodies at concentrations of 0 nM, 0.0064 nM, 0.032 nM, 0.16 nM, 0.8 nM, 4 nM, 20 nM, and 100 nM and incubated at 4° C. for 1 hour. Cells were subsequently stained with an Alexa Fluor 488-conjugated goat anti-human IgG secondary antibody at a 1:1000 dilution. Cells were incubated 4° C. for 1 hour, protected from light. Cells were then washed and the MFI of cells in each well were recorded by FACS using a flow cytometer. Subsequent data were analyzed using GraphPad Prism. […] On the other hand, an anti-α4 antibody tested binds to both cell lines.

Assay [4] concerns the target T3, α4β1 integrin expressed on cells (UniProt P13612 34-1032; P05556 21-798, limits assumed).
T3 construct: whole, on cells; also called α4β1 on Ramos cells; α4β1 on HuT-78 cells
Put plainly: flow cytometry on Ramos cells. How it is done: as §2

In assay [5] the target is T1, recombinant human α4β7 integrin. Put plainly: SPR, antibody captured on anti-human Fc CM5 chip, recombinant human α4β7 integrin as analyte, 25 °C, 1:1 model. How it is done:
as §1

T1 sequence (P13612 34-977 limits assumed, chain 1 of 2): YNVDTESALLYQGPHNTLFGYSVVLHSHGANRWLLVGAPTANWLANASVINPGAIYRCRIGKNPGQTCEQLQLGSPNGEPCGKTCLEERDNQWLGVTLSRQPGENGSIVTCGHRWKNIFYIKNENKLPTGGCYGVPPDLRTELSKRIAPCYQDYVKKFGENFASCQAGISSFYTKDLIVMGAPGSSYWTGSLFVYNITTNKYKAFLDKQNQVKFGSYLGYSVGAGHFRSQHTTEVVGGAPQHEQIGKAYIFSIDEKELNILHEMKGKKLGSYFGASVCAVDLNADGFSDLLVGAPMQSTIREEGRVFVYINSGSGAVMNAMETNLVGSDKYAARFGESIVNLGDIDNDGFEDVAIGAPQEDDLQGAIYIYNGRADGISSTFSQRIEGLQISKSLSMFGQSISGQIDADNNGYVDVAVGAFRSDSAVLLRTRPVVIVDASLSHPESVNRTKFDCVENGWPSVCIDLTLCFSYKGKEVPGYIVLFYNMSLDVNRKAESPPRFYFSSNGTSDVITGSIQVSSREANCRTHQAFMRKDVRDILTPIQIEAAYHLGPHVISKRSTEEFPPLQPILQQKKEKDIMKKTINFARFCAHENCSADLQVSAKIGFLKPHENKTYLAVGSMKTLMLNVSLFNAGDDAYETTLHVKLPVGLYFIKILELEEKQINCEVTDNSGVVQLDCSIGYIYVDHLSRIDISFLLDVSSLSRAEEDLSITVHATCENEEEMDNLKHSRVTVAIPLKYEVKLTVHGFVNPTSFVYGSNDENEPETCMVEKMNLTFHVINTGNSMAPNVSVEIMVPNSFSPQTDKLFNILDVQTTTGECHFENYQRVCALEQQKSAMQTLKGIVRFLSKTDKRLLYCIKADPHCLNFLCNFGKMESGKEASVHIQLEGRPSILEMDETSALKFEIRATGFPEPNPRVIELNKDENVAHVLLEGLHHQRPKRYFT
T1 sequence (P26010 20-723 limits assumed, chain 2 of 2): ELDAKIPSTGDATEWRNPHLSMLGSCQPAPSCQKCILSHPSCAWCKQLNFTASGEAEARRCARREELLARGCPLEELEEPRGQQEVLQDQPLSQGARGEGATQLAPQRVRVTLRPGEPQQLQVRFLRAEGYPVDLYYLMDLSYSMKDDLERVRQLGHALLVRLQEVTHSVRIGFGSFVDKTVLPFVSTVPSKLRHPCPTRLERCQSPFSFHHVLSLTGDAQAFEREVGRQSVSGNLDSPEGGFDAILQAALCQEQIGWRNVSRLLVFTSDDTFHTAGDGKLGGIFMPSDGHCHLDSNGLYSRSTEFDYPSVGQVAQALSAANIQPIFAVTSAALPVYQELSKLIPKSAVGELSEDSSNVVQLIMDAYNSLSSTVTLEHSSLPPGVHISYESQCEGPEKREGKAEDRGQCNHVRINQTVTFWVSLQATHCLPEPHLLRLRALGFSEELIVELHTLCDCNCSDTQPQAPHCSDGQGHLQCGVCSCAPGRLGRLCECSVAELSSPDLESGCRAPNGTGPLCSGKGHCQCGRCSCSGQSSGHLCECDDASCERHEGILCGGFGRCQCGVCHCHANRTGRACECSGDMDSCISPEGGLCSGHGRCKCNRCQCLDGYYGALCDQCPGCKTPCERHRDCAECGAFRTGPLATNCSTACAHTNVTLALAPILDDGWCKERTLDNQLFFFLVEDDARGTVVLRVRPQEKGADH
T3 sequence (P13612 34-1032 limits assumed, chain 1 of 2): as the sequence (P13612 34-1032 limits assumed, chain 1 of 2) above
T3 sequence (P05556 21-798 limits assumed, chain 2 of 2): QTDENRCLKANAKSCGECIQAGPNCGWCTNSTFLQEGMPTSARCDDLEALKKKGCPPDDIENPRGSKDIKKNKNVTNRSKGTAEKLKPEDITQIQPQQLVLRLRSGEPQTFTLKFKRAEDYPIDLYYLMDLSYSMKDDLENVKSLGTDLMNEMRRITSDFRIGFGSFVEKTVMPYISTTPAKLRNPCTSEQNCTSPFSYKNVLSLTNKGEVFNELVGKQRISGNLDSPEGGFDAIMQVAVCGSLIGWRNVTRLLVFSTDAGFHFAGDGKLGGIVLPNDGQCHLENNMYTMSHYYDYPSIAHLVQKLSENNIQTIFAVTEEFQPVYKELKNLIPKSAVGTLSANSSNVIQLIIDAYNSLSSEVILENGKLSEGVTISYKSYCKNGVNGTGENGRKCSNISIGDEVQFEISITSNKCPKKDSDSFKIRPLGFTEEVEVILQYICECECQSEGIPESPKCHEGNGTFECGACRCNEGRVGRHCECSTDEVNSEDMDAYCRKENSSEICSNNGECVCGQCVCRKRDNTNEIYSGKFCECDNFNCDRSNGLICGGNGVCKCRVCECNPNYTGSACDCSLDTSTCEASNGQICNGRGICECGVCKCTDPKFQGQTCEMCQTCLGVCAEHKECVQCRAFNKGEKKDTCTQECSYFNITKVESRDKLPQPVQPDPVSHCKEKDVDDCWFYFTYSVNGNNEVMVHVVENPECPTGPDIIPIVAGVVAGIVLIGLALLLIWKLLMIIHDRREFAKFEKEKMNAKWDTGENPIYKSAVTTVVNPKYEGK

B1: Antibody 1 (antibody, V domains shown)
VH: EVQLVQSGAEVKKPGSSVKVSCKASGGTFTSYWMHWVRQAPGQGLEWMGEIDPSESNTNYNQKFKGRATITADISTSTAYMELSSLRSEDTAVYYCARGGYDGWDYAIDYWGQGTLVTVSS
VL: DVVMTQTPLSLPVTPGQPASISCRSSQSLAKSYGNTYLSWYLQKPGQSPQLLIYGISNRFSGVPDRFSGSGSGTDFTLKISRVEAEDVGVYYCLQGTHQPYTFGQGTKLEIK
notes: It has a human Fc: captured by anti-human Fc in SPR, detected by anti-human IgG in FACS
Turning to B1, the Kd in assay [1] was found to be 6.79 nM. Besides, in assay [2], the “MAdCAM-1 Adhesion Inhibition IC50” value amounted to 0.087 nM. The same molecule yielded an EC50 in assay [3] of 0.2 nM. Further, the binding result in assay [4] is reported as “no binding (tested: 100 nM (highest concentration tested))”. Also, in assay [5], the koff came out at 0.000466 s⁻¹ and the kon came to 68500 M⁻¹ s⁻¹.

B2: Antibody 2 (antibody, V domains shown)
VH: EVQLVESGGGVVQPGRSLRLSCAASGYTFTSYWMHWVRQAPGKGLEWIGEIDPSESNTNYNQKFKGRATISVDNSKNTAYLQMSSLRAEDTAVYYCARGGYDGWDYAIDYWGQGTLVTVSS
VL: DVVMTQTPLSLPVTPGQPASISCRSSQSLAKSYGNTYLSWYLQKPGQSPQLLIYGISNRFSGVPDRFSGSGSGTDFTLKISRVEAEDVGVYYCLQGTHQPYTFGQGTKLEIK
notes: as for B1
In the case of B2, in assay [1], the Kd turned out to be 2.1 nM. Further, the “MAdCAM-1 Adhesion Inhibition IC50” value in assay [2] is 0.15 nM. The same molecule registered an EC50 in assay [3] of 0.27 nM. Further, the binding result in assay [4] was “no binding (tested: 100 nM (highest concentration tested))”. In assay [5], the koff amounted to 0.000118 s⁻¹ and the kon came to 56400 M⁻¹ s⁻¹.
